The source of these data is patent US7517652B2, “Methods of diagnosing tumors using the G-protein coupled receptor (GPCR), RAI-3” (Bristol-Myers Squibb Company, priority 2002, dated 2009).

For this test, the system named is Flag-RAI-3. As to the kind of experiment: Anti-FLAG immunoprecipitation and anti-phosphotyrosine Western blot of A549 cells transiently transfected with Flag-RAI-3. Format: cell-based, human. To be noted: CS-160 1 to 3 hours, EGF 10 nM. On the procedure:
FIGS. 26A and 26B illustrate the results of Western Blot analysis of an A549 cell line (Human Lung Carcinoma CCL-185, American Type Culture Collection, Manassas, Va.) transiently transfected with a FLAG RAI-3 construct (described herein). Media on the cells was changed to serum-free and 48 hours port-transfection the cells were treated with cigarette smoke-bubbled media (i.e., CS-160, the equivalent of 160 cigarettes per 500 ml of cell medium) for the periods of time shown (1 hr., 2 hr., and 3 hr.) and with EGF (10 nM) for 5 minutes. Lysates were immuno-precipitated with 2 μg of anti-FLAG M2 antibody (Catalog # F-3165, Sigma, Saint Louis, Mo.) and 40 μl of Protein A. The Protein A/lysate/antibody mixture was washed, aspirated “dry”, and 60 μl of 2×SDS-PAGE sample buffer was added. After heating at 95° C. for 10 minutes, the samples were loaded onto two 4-20% gradient gels, resolved by SDS-PAGE and transferred to nitrocellulose by standard Western Blotting techniques.
The A549 cell line (American Type Culture Collection, Manassas, Va.) was plated in 100 mm petri dishes and transfected at about 75% confluency. […]

B1: epidermal growth factor (protein, UniProt P01133 23-1207, looked up)
Pro-epidermal growth factor: PQHWSCPEGTLAGNGNSTCVGPAPFLIFSHGNSIFRIDTEGTNYEQLVVDAGVSVIMDFHYNEKRIYWVDLERQLLQRVFLNGSRQERVCNIEKNVSGMAINWINEEVIWSNQQEGIITVTDMKGNNSHILLSALKYPANVAVDPVERFIFWSSEVAGSLYRADLDGVGVKALLETSEKITAVSLDVLDKRLFWIQYNREGSNSLICSCDYDGGSVHISKHPTQHNLFAMSLFGDRIFYSTWKMKTIWIANKHTGKDMVRINLHSSFVPLGELKVVHPLAQPKAEDDTWEPEQKLCKLRKGNCSSTVCGQDLQSHLCMCAEGYALSRDRKYCEDVNECAFWNHGCTLGCKNTPGSYYCTCPVGFVLLPDGKRCHQLVSCPRNVSECSHDCVLTSEGPLCFCPEGSVLERDGKTCSGCSSPDNGGCSQLCVPLSPVSWECDCFPGYDLQLDEKSCAASGPQPFLLFANSQDIRHMHFDGTDYGTLLSQQMGMVYALDHDPVENKIYFAHTALKWIERANMDGSQRERLIEEGVDVPEGLAVDWIGRRFYWTDRGKSLIGRSDLNGKRSKIITKENISQPRGIAVHPMAKRLFWTDTGINPRIESSSLQGLGRLVIASSDLIWPSGITIDFLTDKLYWCDAKQSVIEMANLDGSKRRRLTQNDVGHPFAVAVFEDYVWFSDWAMPSVMRVNKRTGKDRVRLQGSMLKPSSLVVVHPLAKPGADPCLYQNGGCEHICKKRLGTAWCSCREGFMKASDGKTCLALDGHQLLAGGEVDLKNQVTPLDILSKTRVSEDNITESQHMLVAEIMVSDQDDCAPVGCSMYARCISEGEDATCQCLKGFAGDGKLCSDIDECEMGVPVCPPASSKCINTEGGYVCRCSEGYQGDGIHCLDIDECQLGEHSCGENASCTNTEGGYTCMCAGRLSEPGLICPDSTPPPHLREDDHHYSVRNSDSECPLSHDGYCLHDGVCMYIEALDKYACNCVVGYIGERCQYRDLKWWELRHAGHGQQQKVIVVAVCVVVLVMLLLLSLWGAHYYRTQKLLSKNPKNPYEESSRDVRSRRPADTEDGMSSCPQPWFVVIKEHQDLKNGGQPVAGEDGQAADGSMQPTSWRQEPQLCGMGTEQGCWIPVSSDKGSCPQVMERSFHMPSYGTQTLEGGVEKPHSLLSANPLWQQRALDPPHQMELTQ
modifications: Pro-epidermal growth factor
Regarding B1, the “tyrosine phosphorylation of recombinant Flag-RAI-3 protein” value is listed as “does not appear to cause tyrosine phosphorylation”.
